From the supplement of paper PMC12764529
± gives the half width of the 95% confidence interval.

How the values were obtained:
[1] = folding stability dG unfold (combined trypsin and chymotrypsin); higher = more stable
Outline: (§1)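 Unfolding free energy was derived, per protease or combined, by relating Bayesian-fitted K50 values from sequencing counts to a sequence-predicted unfolded-state K50 and a shared folded-state K50. The underlying digests exposed cysteine-free mini-proteins under 80 residues, in a PA-tagged cDNA display construct, to trypsin and chymotrypsin at 11 threefold-diluted concentrations and to a no-protease condition. A filter kept only designs with AlphaFold2 dimer inter-PAE above 15.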

[2] = folding stability dG unfold from trypsin proteolysis; higher = more stable
Outline: as §1

[3] = folding stability dG unfold from chymotrypsin proteolysis; higher = more stable
Outline: as §1

Sequence | folding stability dG unfold [1] | folding stability dG unfold [2] | folding stability dG unfold [3]
SAGGKKKKLKIKIVIVAKSKEEAEKLAKELAEKLKELGIKEVEIEVEVIELPPPPPPPKPDSPEYKKKSAGG [r13_6_TrROS_Hall] | 0.372 ± 0.42 kcal/mol | -0.453 ± 0.34 kcal/mol | -0.131 ± 0.36 kcal/mol
SAGGSAGGSAGMVEVEVRKTENGNYVVTTTTVTTSPVTTPNPYTRTVTTVTTSTTVIPATSAGGSAGGSAGG [r11_403_JUSTAS] | -0.187 ± 0.39 kcal/mol | -0.758 ± 0.3 kcal/mol | -0.101 ± 0.23 kcal/mol
SSLENLEPVSYDVTVEEGPTSPSGVTYTRITITEPGGSTATVTVTPESLTLDYSVRDKARVEALVRELLESA [r9_662_JUSTAS] | 1.04 ± 0.064 kcal/mol | 0.957 ± 0.019 kcal/mol | 0.989 ± 0.11 kcal/mol
SAGGSAMKPGQKLLVKNKKTNKIYEITFDKDTGKVYIHNKKTGKTYEFDSLEDALKKMGFEPVKVESAGGSA [r15_500_TrROS_Hall] | 2.28 ± 0.16 kcal/mol | 1.43 ± 0.078 kcal/mol | 2.45 ± 0.08 kcal/mol
SAGPYYIITVTIPLPNLSPDLQEDFPGQKVTFMFIVDPGMDMEQKRQIKEELRDFGIKDVDIMPADDIKSAG [r5_60_TrROS] | 2.2 ± 0.1 kcal/mol | 1.27 ± 0.026 kcal/mol | 2.58 ± 0.03 kcal/mol
SAGPIKIVVNPDGMLIMVFPHPDGSLMVMIFTFKPNPKNGKRRFEMEMIMIDPDPGDPHVMTMRFEIPPSAG [r5_424_TrROS] | 4.08 ± 0.18 kcal/mol | 3.37 ± 0.15 kcal/mol | 4.88 ± 0.09 kcal/mol
SAGGSAGGSAGGMKVERVEVVELPNGQRVLTRTLEVVPPDGSSRVLETEVRFYPPDEALLSAGGSAGGSAGG [r7_917_JUSTAS] | 0.0413 ± 0.065 kcal/mol | -0.666 ± 0.38 kcal/mol | 0.291 ± 0.06 kcal/mol
SAGGSAGGMPLLPLNKEVRVLSVSYIPPNDVVVVRVKGLDNVESTILIPVSLAKNIPISPDSTLSAGGSAGG [r6_910_TrMRF] | 0.733 ± 0.056 kcal/mol | 0.944 ± 0.024 kcal/mol | 0.44 ± 0.059 kcal/mol
SAGGSAGGSAGGPIPGSTIPSVPVKIVNIHPDGTKTEYFNSDIPIDALKEKFPGEIEFESSAGGSAGGSAGG [r17_125_TrMRF] | 0.703 ± 0.065 kcal/mol | 0.562 ± 0.065 kcal/mol | 0.734 ± 0.029 kcal/mol
SAGGPSIPGEKIRELLEKGYSLEEIVEFLEKENIPIARIEGVEPHPNSITIVFYNPETGEKITAVIGSAGGS [r8_179_TrMRF] | 2.72 ± 0.14 kcal/mol | 2.02 ± 0.058 kcal/mol | 2.96 ± 0.081 kcal/mol
SAGGSAGGMVTTKELPSNKTVTVTVTPDPVAGREGATVKPPSTSETKNFGDPAAAAAMSPEKLSSAGGSAGG [r6_740_JUSTAS] | 0.29 ± 0.15 kcal/mol | 0.42 ± 0.034 kcal/mol | 0.2 ± 0.071 kcal/mol
SAGGSAGGSAPNQTWVLRITIKFPNGKKRSFQFTFPLDDIKEEIEEEFGIDDIDIEWQPLDSAGGSAGGSAG [r3_220_TrROS] | 2.84 ± 0.12 kcal/mol | 2.63 ± 0.061 kcal/mol | 2.77 ± 0.069 kcal/mol
SAGKIEFPMPNGYWFRIEIDPENNKVKVEYSPHNGQYKVKIPGKEEVQIPIKGMPFEEMAKEIIEKLLKSAG [r5_447_TrROS] | 0.962 ± 0.4 kcal/mol | 0.776 ± 0.17 kcal/mol | 1.13 ± 0.19 kcal/mol
SAGGSAGGSAGGMKYTIKVTTTYPDGTVTEYTFPSSVSKEEIIKELPSDVVDITFTETASSAGGSAGGSAGG [r7_288_JUSTAS] | 2.26 ± 0.04 kcal/mol | 2.17 ± 0.066 kcal/mol | 2.17 ± 0.026 kcal/mol
SAGGSAISEEEPFVKIKVELESEPKEIILPKSDIVKIEVDEPDKIATIYLPSTGKFFPFKVLSVENSAGGSA [r15_495_TrMRF] | -0.0342 ± 0.27 kcal/mol | 0.332 ± 0.079 kcal/mol | -0.343 ± 0.44 kcal/mol
SAMRFVVRVEGDLEEVERALREEFDFEMEAEREEDGRLVVVVEAEPEELERLVEALERLPDFPVEIEPESAG [r14_521_TrMRF] | 0.93 ± 0.062 kcal/mol | 1.01 ± 0.027 kcal/mol | 0.716 ± 0.1 kcal/mol
SAGGSAGGSAGGPAVPVRTTLPDGRVVYYDPESGLTTIYVPETNETLVRDPATGTVTALSAGGSAGGSAGGS [r10_1057_JUSTAS] | 0.938 ± 0.036 kcal/mol | 1.26 ± 0.027 kcal/mol | 0.562 ± 0.04 kcal/mol
SMISLEKETSLPPEEARRAVERFLAELPEVERLLSVEVREDPDSYTVSLTLEGGAVSPEVLEAIERALAASA [r9_195_JUSTAS] | 2.63 ± 0.062 kcal/mol | 2.54 ± 0.053 kcal/mol | 2.71 ± 0.039 kcal/mol
KKKTIEIIFPENNLIIKIEVDEETGKELTEEEIKKLLEELFPGKDIEKMSIEEIAKRLASLPGVKKVEIYPS [r1_463_TrROS_Hall] | 2.46 ± 0.1 kcal/mol | 3.19 ± 0.09 kcal/mol | 1.57 ± 0.07 kcal/mol
SMIPVEELVRLAAERLGLPEEELENIEEVEPFEVEPLPDNAVRVKLRIRLKNPESDEVTELDIEIVDPGGSA [r9_230_TrMRF] | 1.92 ± 0.072 kcal/mol | 1.2 ± 0.021 kcal/mol | 2.21 ± 0.033 kcal/mol
SAGGSAGGSAGYLYFISIEFNLQWNGDGNLQLQPKIEIQRIEIPPPPPKWKYDGNKPKYDSAGGSAGGSAGG [r17_418_TrROS] | 3.04 ± 0.17 kcal/mol | 2.44 ± 0.12 kcal/mol | 3.44 ± 0.048 kcal/mol
